In patent US5972678A, “Animal 2-5A dependent RNases” (Cleveland Clinic Foundation, priority 1995, dated 1999):

What was measured:
2-5A-dependent RNase = conditions: cited from earlier work
poly(U) = experiment: ribonuclease assay with 2-5A-cellulose, poly(U) substrate; assay type: biochemical
Experimental: (§1) FIG. 5B is reticulocyte lysate pretreated to remove endogeous 2-5A-dependent RNase and is incubated in the absence of added mRNA (.box-solid.), in the presence of human 2-5A-dependent RNase mRNA without inhibitor (.smallcircle., .quadrature.) or in the presence of both 2-5A-dependent RNase mRNA and cycloheximide (50 μg per ml (.circle-solid.). See Example. Subsequently, the recombinant 2-5A-dependent RNase (or controls) is adsorbed to 2-5A-cellulose and ribonuclease assays are performed after extensive washing of the matrix to reduce general nuclease activity. Radiolabeled substrate RNA was either poly(U) (.smallcircle., .circle-solid., .box-solid.) or poly(C) (.quadrature.).
(§2) Ribonuclease assays with recombinant 2-5A-dependent RNase are performed after immobilizing and purifying the translation product on the activating affinity matrix, 2-5A-cellulose. It was previously shown that murine L cell 2-5A-dependent RNase bound to 2-5A-cellulose, resulting in ribonuclease activity against poly(U) but not poly(c). […]
(§3) Briefly, lysates are adsorbed to about […] of 2-5A-cellulose on ice for about two hours. […] The matrix is then incubated with poly(U)-[^32 P]Cp or poly(C)-[^32 P]Cp (both at about 16 μM in nucleotide equivalents) at about 30° C. and the levels of acid-precipitable radioactive RNA are determined by filtration on glass-fiber filters.

poly(C) = experiment: ribonuclease assay with 2-5A-cellulose, poly(C) substrate; assay type: biochemical; conditions: isolated on 2-5A-cellulose
Experimental: as §1, §2, §3

| Molecule | stimulatory effect on 2-5A-dependent RNase activity (2-5A-dependent RNase) | half-life of poly(U) degradation (poly(U); enzyme from reticulocyte lysate bound to 2-5A-cellulose, about 30° C.) | ribonuclease activity towards poly(U) (in words) (poly(U); isolated on 2-5A-cellulose) | ribonuclease activity against poly(C) (in words) (poly(C)) |
| --- | --- | --- | --- | --- |
| Nc1ncnc2c1ncn2[C@@H]1O[C@H](COP(=O)(O)OP(=O)(O)OP(=O)(O)O)[C@@H](O)[C@H]1O [ATP] | two-fold |  |  |  |
| recombinant human 2-5A-dependent RNase: full-length human 2-5A-dependent RNase, amino acids 1-741 in Table I, produced in vitro in reticulocyte lysate (protein, UniProt Q05823 1-741, looked up, full-length) MESRDHNNPQEGPTSSSGRRAAVEDNHLLIKAVQNEDVDLVQQLLEGGANVNFQEEEGGWTPLHNAVQMSREDIVELLLRHGADPVLRKKNGATPFILAAIAGSVKLLKLFLSKGADVNECDFYGFTAFMEAAVYGKVKALKFLYKRGANVNLRRKTKEDQERLRKGGATALMDAAEKGHVEVLKILLDEMGADVNACDNMGRNALIHALLSSDDSDVEAITHLLLDHGADVNVRGERGKTPLILAVEKKHLGLVQRLLEQEHIEINDTDSDGKTALLLAVELKLKKIAELLCKRGASTDCGDLVMTARRNYDHSLVKVLLSHGAKEDFHPPAEDWKPQSSHWGAALKDLHRIYRPMIGKLKFFIDEKYKIADTSEGGIYLGFYEKQEVAVKTFCEGSPRAQREVSCLQSSRENSHLVTFYGSESHRGHLFVCVTLCEQTLEACLDVHRGEDVENEEDEFARNVLSSIFKAVQELHLSCGYTHQDLQPQNILIDSKKAAHLADFDKSIKWAGDPQEVKRDLEDLGRLVLYVVKKGSISFEDLKAQSNEEVVQLSPDEETKDLIHRLFHPGEHVRDCLSDLLGHPFFWTWESRYRTLRNVGNESDIKTRKSESEILRLLQPGPSEHSKSFDKWTTKINECVMKKMNKFYEKRGNFYQNTVGDLLKFIRNLGEHIDEEKHKKMKLKIGDPSLYFQKTFPDLVIYVYTKLQNTEYRKHFPQTHSPNKPQCDGAGGASGLASPGC |  | about 10 minutes | potent ribonuclease activity | none |
